Substitutions are numbered along the chain they refer to.
B1: SLP65_(1-330) (domain or fragment, UniProt Q8WV28 1-330, looked up)
chain: MDKLNKITVPASQKLRQLQKMVHDIKNNEGGIMNKIKKLKVKAPPSVPRRDYASESPADEEEQWSDDFDSDYENPDEHSDSEMYVMPAEENADDSYEPPPVEQETRPVHPALPFARGEYIDNRSSQRHSPPFSKTLPSKPSWPSEKARLTSTLPALTALQKPQVPPKPKGLLEDEADYVVPVEDNDENYIHPTESSSPPPEKAPMVNRSTKPNSSTPASPPGTASGRNSGAWETKSPPPAAPSPLPRAGKKPTTPLKTTPVASQQNASSVCEEKPIPAERHRGSSHRQEAVQSPVFPPAQKQIHQKPIPLPRFTEGGNPTVDGPLPSFSS
notes: Src homology 2 domain-containing leukocyte protein of 65 kDa (SLP65, BLNK), shortened at the C-terminus, residues 1-330, lacks the C-terminal SH2 domain; also called Wildtype SLP65_(1-330); BLNK
B2: SLP65-3xPRM4 (domain or fragment)
chain: B1 chain with I276S, A278L, E279P, I308S
modifications: 1-330 is printed; the text says PRMs are six residues long. The swapped limits are assumed: PRM5 275-280 and PRM6 307-312, each replaced by PRM4 242-247. Partly Atto430LS-labelled for microscopy.
B3: SLP65-R247A (domain or fragment, UniProt Q8WV28 1-330, looked up)
chain: B1 chain with R247A
notes: the C-terminally shortened version (1-330) was used for measurements
B4: CIN85-BBB (domain or fragment)
chain: RRRRRCQVAFSYLPQNDDELELKVGDIIEVVGEVEEGWWEGVLNGKTGMFPSNFIKELSGEMKKDPLTNKAPEKPLHEVPSGNSLLSSETILRTNKRGERRRRRCQVAFSYLPQNDDELELKVGDIIEVVGEVEEGWWEGVLNGKTGMFPSNFIKELSGESDELGISQDEQLSKSSLRETTGSESDGGDSSSTKSEGANGTVATAAIQPKKVKGVGFGDIFKDKPIKLRPRSIEVENDFLPVEKTIGKKLPATTATPDSSKTEMDSRTRRRRRCQVAFSYLPQNDDELELKVGDIIEVVGEVEEGWWEGVLNGKTGMFPSNFIKELSGDFEKE

Assays:
Assay in all cases: ITC; multivalent SLP65 constructs with multivalent CIN85 constructs (global KD); conditions in the SI Appendix
Conditions in all cases: both partners purified
CIN85-ABC = target: T1, CIN85-ABC (UniProt Q96B97 1-333)
T1 construct: also called CIN85_(1-333); wildtype-like CIN85-ABC construct
T1 sequence (looked up): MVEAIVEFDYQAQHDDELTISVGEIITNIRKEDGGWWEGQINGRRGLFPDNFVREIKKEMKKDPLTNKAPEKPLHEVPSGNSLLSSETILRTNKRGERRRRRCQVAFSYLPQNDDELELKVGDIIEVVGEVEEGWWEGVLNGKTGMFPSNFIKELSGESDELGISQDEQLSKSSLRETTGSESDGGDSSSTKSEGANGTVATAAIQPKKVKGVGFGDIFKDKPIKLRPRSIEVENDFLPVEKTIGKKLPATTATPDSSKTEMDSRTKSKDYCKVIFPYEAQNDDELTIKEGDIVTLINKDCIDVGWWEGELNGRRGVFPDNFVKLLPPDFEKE

CIN85-BBB = target: B4
SLP65_(1-330) = target: B1

Binder	Kd (CIN85-ABC)	Kd (CIN85-BBB)	Kd (SLP65_(1-330))
B1	1360 ± 170 nM		
B2	240 ± 10 nM	140 ± 60 nM	
B3	7040 ± 1120 nM		
B4			700 ± 250 nM

From paper PMC10923291, “Quantitative description of the phase-separation behavior of the multivalent SLP65–CIN85 complex” (PNAS Nexus, 2024)
